Source: the DeepSol protein solubility set

Assay: soluble on expression in E. coli; label from the status in PepcDB or PDB records

Row | Sequence | soluble on expression in E. coli
1 | MSRDSGNDSEVAVTHGEVQEITEENPEIGSMHITQETDISDAPETNTDSSRQRTESTTSVSSESWQNNDEMMSNLRRAQRLLDDGATPLQIIQQIFPDFNASRIATMSENAHFAILSDLLERAPVRQKLTNYNSLADAVELFKTKKHILVLTGAGVSVSCGIPDFRSKDGIYARLRSEFPDLPDPTAMFDIRYFRENPAPFYNFAREIFPGQFVPSVSHRFIKELETSGRLLRNYTQNIDTLEHQTGIKRVVECHGSFSKCTCTRCGQKYDGNEIREEVLAMRVAHCKRCEGVIKPNIVFFGEDLGREFHQHVTEDKHKVDLIVVIGSSLKVRPVALIPHCVDKNVPQILINRESLPHYNADIELLGNCDDIIRDICFSLGGSFTELITSYDSIMEQQGKTKSQKPSQNKRQLISQEDFLNICMKEKRNDDSSDEPTLKKPRMSVADDSMDSEKNNFQEIQKHKSEDDDDTRNSDDILKKIKHPRLLSITEMLHDNKCVAISAHQTVFPGAECSFDLETLKLVRDVHHETHCESSCGSSCSSNADSEANQLSRAQSLDDFVLSDEDRKNTIHLDLQRADSCDGDFQYELSETIDPETFSHLCEEMRI | not soluble
2 | MYVNKQEIIKNIQKLSPKSPAEYIEKDGCFMLTCPENTYPSFFSQFQYSEIPPPGNLIPQNALEISPPTSLEEMGGASLSEYFGIICDDGVWKLTKYPNGITFNKDPPSYTNGSLNGYKTEIFTMNCY | not soluble
3 | MSLGAMCFYHYWFLGKQLLEKPAEILLENKEINMPFLFSWANEPWTRAWDGSHRNVLMPQSYGTEADWEKHFNYLKPFFEDERYLKHDGKPIFIIYRTANFALCNEWISCWRELSKNTSFKDIHFVSSYTSFENDPRKLDFDAHLYFEPMCTVGHNLGYFNKKIKKINARLKRVINPKVWTTYVENTLQYDYLWEKILKKKINKTQYPGAFVDWDNSARKKSRALVIHGGSPKKFGLYLDKLYKRSIENNCPFLFINAWNEWAEGTYLEPDEKNKYSYLEELKKVIEKYEVEGHHHHHH | not soluble
4 | MKQFVVISGKGGTGKTSVTAGLAAVGKDMVLADCDVDAADLHLVLAPEIRERHDFISGVVASIEPEACISCGLCTTHCRYGAIPQGYAPQVAPEHCEGCGVCAHVCPTGAARLSDRRCGEWYVSDTRFGPMVHAALGIGEENSGKLVSTVRTRARELAEARDASVVLIDGSPGVGCPVIASLAGADAALAVTEPTVSALHDLERVHALARHFDVRMAVLLNKADIHPGMAERIIGYCTTHDLPLVGRFGFSPLFVQAQLEGRTLPEQDSGEWRQRFNGVWNQLLALVLEHHHHHH | not soluble
5 | MGHHHHHHGGHMSLSNEVERVYPRLLDFVRKKYVSKNLLRVTLTGEDLIGFPEDQNGSHIKVFFPNQASGILQLPIREGDKVIWPEHKPVPRAYTVRQYRAQSNELDIDFVVHGEGTPGGGWALKAQTGSQLGLIGPGGPDPLIEPADWHIMAGDLSAVPAISAILEKMPSQAKGYVFLEVDDIEDKHDISHPEQMVIKWLVRDPNQAQPVLAMAIEQLPVPQGAESLSAFVAGENESVIACRKILRNEYRIARDKIYAIPYWKRGKNEEAYHEERHVVMDEEFEGGS | soluble
6 | MSLNVNFFVTCIGDALKSRMARDSVLLLEKLGCRVNFPEKQGCCGQPAINSGYIKEAIPGMKNLIAALEDNDDPIISPAGSCTYAVKSYPTYLADEPEWASRAEKVAARMQDLTSFIVNTLGVVDVGASLQGRAVYHPSCSLARKLGVKDEPLTLLKNVRGLELLTFAEQDTCCGFGGTFSVKMAEISGEMVKEKVAHLMEVRPEYLIGADVSCLLNISGRLQREGQKVKVMHIAEVLMSREGHHHHHH | not soluble
7 | MGSDKIHHHHHHMTLSFVTRWRDELPETYTALSPTPLNNARLIWHNTELANTLSIPSSLFKNGAGVWGGEALLPGMSPLAQVYSGHQFGVWAGQLGDGRGILLGEQLLADGTTMDWHLKGAGLTPYSRMGDGRAVLRSTIRESLASEAMHYLGIPTTRALSIVTSDSPVYRETAEPGAMLMRVAPSHLRFGHFEHFYYRRESEKVRQLADFAIRHYWSHLADDEDKYRLWFSDVVARTASLIAQWQTVGFAHGVMNTDNMSLLGLTLDYGPFGFLDDYEPGFICNHSDHQGRYSFDNQPAVALWNLQRLAQTLSPFVAVDALNEALDSYQQVLLTHYGERMRQKLGFMTEQKEDNALLNELFSLMARERSDYTRTFRMLSLTEQHSAASPLRDEFIDRAAFDDWFARYRGRLQQDEVSDSERQQLMQSVNPALVLRNWLAQRAIEAAEKGDMTELHRLHEALRNPFSDRDDDYVSRPPDWGKRLEVSCSS | not soluble
